The target in this experiment is SET-26::GFP, excessively sumoylated (ulp-2 loss of activity background) (C. elegans) (UniProt Q9U263). Kind of experiment: co-IP.
Sequence of UniProt Q9U263 (Q9U263 whole entry): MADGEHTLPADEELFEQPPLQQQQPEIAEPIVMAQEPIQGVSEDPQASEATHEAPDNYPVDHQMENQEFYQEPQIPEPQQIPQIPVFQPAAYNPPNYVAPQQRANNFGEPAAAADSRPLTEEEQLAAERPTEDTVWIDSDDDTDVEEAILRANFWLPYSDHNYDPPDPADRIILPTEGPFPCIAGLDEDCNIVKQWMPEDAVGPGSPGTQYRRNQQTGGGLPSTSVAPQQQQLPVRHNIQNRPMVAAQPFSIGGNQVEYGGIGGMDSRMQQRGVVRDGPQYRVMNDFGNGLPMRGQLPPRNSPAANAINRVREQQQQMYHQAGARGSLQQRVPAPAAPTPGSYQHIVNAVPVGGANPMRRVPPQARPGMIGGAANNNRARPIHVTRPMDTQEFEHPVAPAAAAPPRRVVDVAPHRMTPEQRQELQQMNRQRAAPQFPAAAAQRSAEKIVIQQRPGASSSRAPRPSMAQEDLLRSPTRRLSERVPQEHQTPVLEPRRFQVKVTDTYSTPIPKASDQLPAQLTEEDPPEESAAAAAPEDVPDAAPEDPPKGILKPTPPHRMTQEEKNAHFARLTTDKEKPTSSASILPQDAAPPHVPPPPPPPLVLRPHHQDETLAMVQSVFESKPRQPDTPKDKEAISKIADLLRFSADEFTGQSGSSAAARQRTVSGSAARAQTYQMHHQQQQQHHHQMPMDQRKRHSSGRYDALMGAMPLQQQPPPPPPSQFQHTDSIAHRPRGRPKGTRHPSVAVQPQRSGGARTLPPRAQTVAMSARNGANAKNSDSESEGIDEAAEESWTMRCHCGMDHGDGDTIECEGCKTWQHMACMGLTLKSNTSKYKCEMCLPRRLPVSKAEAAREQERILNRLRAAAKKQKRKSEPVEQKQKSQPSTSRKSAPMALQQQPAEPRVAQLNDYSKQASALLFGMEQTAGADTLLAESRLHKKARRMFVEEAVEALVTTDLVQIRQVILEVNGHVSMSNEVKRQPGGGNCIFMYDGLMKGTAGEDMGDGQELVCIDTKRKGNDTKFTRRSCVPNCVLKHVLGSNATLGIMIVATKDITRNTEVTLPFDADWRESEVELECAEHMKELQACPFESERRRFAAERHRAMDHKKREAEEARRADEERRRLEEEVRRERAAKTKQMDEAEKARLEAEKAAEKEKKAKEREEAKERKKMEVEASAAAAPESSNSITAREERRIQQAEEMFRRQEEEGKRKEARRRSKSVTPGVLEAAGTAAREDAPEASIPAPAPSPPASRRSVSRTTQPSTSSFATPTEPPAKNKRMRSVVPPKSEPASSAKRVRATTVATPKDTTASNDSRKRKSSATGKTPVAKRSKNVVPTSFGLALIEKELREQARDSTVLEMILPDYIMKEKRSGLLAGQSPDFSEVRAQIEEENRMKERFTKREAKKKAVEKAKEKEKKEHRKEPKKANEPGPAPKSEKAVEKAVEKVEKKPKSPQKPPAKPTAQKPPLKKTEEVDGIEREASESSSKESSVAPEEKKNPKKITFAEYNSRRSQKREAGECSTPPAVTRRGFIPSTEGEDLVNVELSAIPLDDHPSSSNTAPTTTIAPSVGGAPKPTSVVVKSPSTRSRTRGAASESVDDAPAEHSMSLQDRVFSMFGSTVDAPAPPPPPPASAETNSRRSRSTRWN

Substance “Histone H3 trimethylated at lysine 4 (H3K4me3) (from UniProt P08898 1-136) (natural protein)” came in with a reduction of binding compared with WT of 55%.

Values taken from article doi:10.1101/2024.02.27.582283.
